Assay results from publication PMC7662524, “Determination and Dissection of DNA-Binding Specificity for the Thermus thermophilus HB8 Transcriptional Regulator TTHB099”.

T1: TTHB099 (Thermus thermophilus HB8, UniProt Q53W63 1-195)
T1 sequence: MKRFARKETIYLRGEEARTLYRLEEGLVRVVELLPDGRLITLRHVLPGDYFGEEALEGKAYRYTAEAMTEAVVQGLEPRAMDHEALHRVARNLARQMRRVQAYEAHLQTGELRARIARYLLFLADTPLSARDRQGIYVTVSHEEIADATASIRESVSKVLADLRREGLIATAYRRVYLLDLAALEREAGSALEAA

B1: TTHA1833 site (dsDNA)
DNA 1: AGGAATTCGTGCAGAGGTGAATTGTAGGCCAGGCCACGTTACCATCCCTCCAGAAGCTTG
DNA 2: CAAGCTTCTGGAGGGATGGTAACGTGGCCTGGCCTACAATTCACCTCTGCACGAATTCCT
B2: ST2_099 m7 (dsDNA)
DNA 1: AGGAATTCGTGCAGAGGTGAATTGTATTTTAGAATACATTACCATCCCTCCAGAAGCTTG
DNA 2: CAAGCTTCTGGAGGGATGGTAATGTATTCTAAAATACAATTCACCTCTGCACGAATTCCT
B3: TTHA0080/81 site (dsDNA)
DNA 1: AGGAATTCGTGCAGAGGTGAATTGTGTTTTAGTTTACTTTACCATCCCTCCAGAAGCTTG
DNA 2: CAAGCTTCTGGAGGGATGGTAAAGTAAACTAAAACACAATTCACCTCTGCACGAATTCCT
B4: ST2_099 m5 (dsDNA)
DNA 1: AGGAATTCGTGCAGAGGTGAATTGTACTCTAGAATACATTACCATCCCTCCAGAAGCTTG
DNA 2: CAAGCTTCTGGAGGGATGGTAATGTATTCTAGAGTACAATTCACCTCTGCACGAATTCCT
B5: TTHA0506/07 site (dsDNA)
DNA 1: AGGAATTCGTGCAGAGGTGAATTGTTTTTCAAGATACATTACCATCCCTCCAGAAGCTTG
DNA 2: CAAGCTTCTGGAGGGATGGTAATGTATCTTGAAAAACAATTCACCTCTGCACGAATTCCT
B6: TTHA0374 site (dsDNA)
DNA 1: AGGAATTCGTGCAGAGGTGAATAGTGATGTAAACTAAATTACCATCCCTCCAGAAGCTTG
DNA 2: CAAGCTTCTGGAGGGATGGTAATTTAGTTTACATCACTATTCACCTCTGCACGAATTCCT
B7: ST2_099 m6 (dsDNA)
DNA 1: AGGAATTCGTGCAGAGGTGAATTGTATACTAGAATACATTACCATCCCTCCAGAAGCTTG
DNA 2: CAAGCTTCTGGAGGGATGGTAATGTATTCTAGTATACAATTCACCTCTGCACGAATTCCT
B8: ST2_099 m3 (dsDNA)
DNA 1: AGGAATTCGTGCAGAGGTGAATTGAATTCTAGAATACATTACCATCCCTCCAGAAGCTTG
DNA 2: CAAGCTTCTGGAGGGATGGTAATGTATTCTAGAATTCAATTCACCTCTGCACGAATTCCT
B9: TTHA1626/27 site (dsDNA)
DNA 1: AGGAATTCGTGCAGAGGTGAATGGTATGGGAAGCTACATTACCATCCCTCCAGAAGCTTG
DNA 2: CAAGCTTCTGGAGGGATGGTAATGTAGCTTCCCATACCATTCACCTCTGCACGAATTCCT
B10: ST2_099 m1 (dsDNA)
DNA 1: AGGAATTCGTGCAGAGGTGAATGGTATTCTAGAATACATTACCATCCCTCCAGAAGCTTG
DNA 2: CAAGCTTCTGGAGGGATGGTAATGTATTCTAGAATACCATTCACCTCTGCACGAATTCCT
B11: TTHB088/89 site (dsDNA)
DNA 1: AGGAATTCGTGCAGAGGTGAATGGTAGCCTGGACCACATTACCATCCCTCCAGAAGCTTG
DNA 2: CAAGCTTCTGGAGGGATGGTAATGTGGTCCAGGCTACCATTCACCTCTGCACGAATTCCT
B12: ST2_099 m4 (dsDNA)
DNA 1: AGGAATTCGTGCAGAGGTGAATTGTCTTCTAGAATACATTACCATCCCTCCAGAAGCTTG
DNA 2: CAAGCTTCTGGAGGGATGGTAATGTATTCTAGAAGACAATTCACCTCTGCACGAATTCCT
B13: ST2_099 m2 (dsDNA)
DNA 1: AGGAATTCGTGCAGAGGTGAATTTTATTCTAGAATACATTACCATCCCTCCAGAAGCTTG
DNA 2: CAAGCTTCTGGAGGGATGGTAATGTATTCTAGAATAAAATTCACCTCTGCACGAATTCCT
B14: TTHA0201/02 site (dsDNA)
DNA 1: AGGAATTCGTGCAGAGGTGAATTTTGTTATACGCCACATTACCATCCCTCCAGAAGCTTG
DNA 2: CAAGCTTCTGGAGGGATGGTAATGTGGCGTATAACAAAATTCACCTCTGCACGAATTCCT
B15: TTHA1911/12 site (dsDNA)
DNA 1: AGGAATTCGTGCAGAGGTGAATTGTACTTGAGCATACCTTACCATCCCTCCAGAAGCTTG
DNA 2: CAAGCTTCTGGAGGGATGGTAAGGTATGCTCAAGTACAATTCACCTCTGCACGAATTCCT
B16: TTHA0132/33 site (dsDNA)
DNA 1: AGGAATTCGTGCAGAGGTGAATTGTAAGGGAGAATAAATTACCATCCCTCCAGAAGCTTG
DNA 2: CAAGCTTCTGGAGGGATGGTAATTTATTCTCCCTTACAATTCACCTCTGCACGAATTCCT
B17: ST2_099 m8 (dsDNA)
DNA 1: AGGAATTCGTGCAGAGGTGAATTGTATTCAAGAATACATTACCATCCCTCCAGAAGCTTG
DNA 2: CAAGCTTCTGGAGGGATGGTAATGTATTCTTGAATACAATTCACCTCTGCACGAATTCCT
B18: ST2_REPSAis control (dsDNA)
DNA 1: CTAGGAATTCGTGCAGAGGTGAATCGTCATAGAATTCGTTACCATCCCTCCAGAAGCTTGGAC
DNA 2: GTCCAAGCTTCTGGAGGGATGGTAACGAATTCTATGACGATTCACCTCTGCACGAATTCCTAG

What was measured:
TTHB099 [1] = target: T1, TTHB099; experiment: BLI; Buffer, salt, pH and temperature not given (as previously described); BLI 17, 50, 150, 450 nM TTHB099 on streptavidin sensors; EMSA 0-42.2 nM TTHB099; conditions: protein: recombinant; label: 5' biotin
TTHB099 [2] = target: T1, TTHB099; experiment: BLI; up to 450 nM TTHB099; Buffer, salt, pH and temperature not given (as previously described); BLI 17, 50, 150, 450 nM TTHB099 on streptavidin sensors; EMSA 0-42.2 nM TTHB099; conditions: protein: recombinant; label: 5' biotin

Binder	Kd (TTHB099 [1])	binding result (TTHB099 [2])
B1	3.05 nM	
B2	5.82 nM	
B3	93.2 nM	
B4	4.86 nM	
B5	77.6 nM	
B6		no binding
B7	5.61 nM	
B8	13.8 nM	
B9	102 nM	
B10	6.29 nM	
B11	3.35 nM	
B12	9.56 nM	
B13	33.6 nM	
B14	780 nM	
B15	65.6 nM	
B16	221 nM	
B17	6.81 nM	
B18		no binding
